Results from PMC7561547 (2020).

Biological target: FGFR2b (Homo sapiens, UniProt P21802)
Test: SPR

- Kd: 0.58 nM
B1: bemarituzumab (antibody, V domains shown)
VH: QVQLVQSGAEVKKPGSSVKVSCKASGYIFTTYNVHWVRQAPGQGLEWIGSIYPDNGDTSYNQNFKGRATITADKSTSTAYMELSSLRSEDTAVYYCARGDFAYWGQGTLVTVSS
VL: DIQMTQSPSSLSASVGDRVTITCKASQGVSNDVAWYQQKPGKAPKLLIYSASYRYTGVPSRFSGSGSGTDFTFTISSLQPEDIATYYCQQHSTTPYTFGQGTKLEIKR
